Sequences and labels used below:
B1: NRC3_wobSeed34_DR1_T25C_o1 (dsDNA)
DNA 1: GCATCGAAAGGTCGAAGGTGAGTACACCCACCCGAAGCGATTGACAGCGTAGAATGAAGG
DNA 2: CCTTCATTCTACGCTGTCAATCGCTTCGGGTGGGTGTACTCACCTTCGACCTTTCGATGC
B2: NRC3_wobSeed138_DR5_A6T_o1 (dsDNA)
DNA 1: GCGATTCAGGGTCAGCTAGAGGCCAGAGTATGGAAAGCGATTGACAGCGTAGAATGAAGG
DNA 2: CCTTCATTCTACGCTGTCAATCGCTTTCCATACTCTGGCCTCTAGCTGACCCTGAATCGC
B3: NRC3_wobSeed33_DR1_A16T_o1 (dsDNA)
DNA 1: GCATCTCTAGGTAAATGTTCAGTGAATCCCGAGGATGCGATTGACAGCGTAGAATGAAGG
DNA 2: CCTTCATTCTACGCTGTCAATCGCATCCTCGGGATTCACTGAACATTTACCTAGAGATGC
B4: NRC3_wobSeed65_DR2_T6C_o1 (dsDNA)
DNA 1: GCATACGTAGGTTATCGGGTCATTCAGTTTGCGCATGCGATTGACAGCGTAGAATGAAGG
DNA 2: CCTTCATTCTACGCTGTCAATCGCATGCGCAAACTGAATGACCCGATAACCTACGTATGC
B5: NRC3_wobSeed46_DR1_G10A_o1 (dsDNA)
DNA 1: GCTTACCAAAGTGAAAGGTCGTTGATGCACGCCTTGGCGATTGACAGCGTAGAATGAAGG
DNA 2: CCTTCATTCTACGCTGTCAATCGCCAAGGCGTGCATCAACGACCTTTCACTTTGGTAAGC
B6: NRC3_wobSeed85_DR3_A27T_o1 (dsDNA)
DNA 1: GCCGTCCAAGGTCAGAGAGGTCAGTGTATGCCGAGTGCGATTGACAGCGTAGAATGAAGG
DNA 2: CCTTCATTCTACGCTGTCAATCGCACTCGGCATACACTGACCTCTCTGACCTTGGACGGC
B7: NRC3_wobSeed85_DR3_A28C_o1 (dsDNA)
DNA 1: GCCGTCCAAGGTCAGAGAGGTCAGTGACTGCCGAGTGCGATTGACAGCGTAGAATGAAGG
DNA 2: CCTTCATTCTACGCTGTCAATCGCACTCGGCAGTCACTGACCTCTCTGACCTTGGACGGC
B8: NRC3_wobSeed125_DR5_A14G_o1 (dsDNA)
DNA 1: GCCCTTACGGGTCGCTGACAGGTTATAGCATTTGGAGCGATTGACAGCGTAGAATGAAGG
DNA 2: CCTTCATTCTACGCTGTCAATCGCTCCAAATGCTATAACCTGTCAGCGACCCGTAAGGGC
B9: NRC3_wobSeed125_DR5_G11T_o1 (dsDNA)
DNA 1: GCCCTTACGGTTCACTGACAGGTTATAGCATTTGGAGCGATTGACAGCGTAGAATGAAGG
DNA 2: CCTTCATTCTACGCTGTCAATCGCTCCAAATGCTATAACCTGTCAGTGAACCGTAAGGGC
B10: NRC3_wobSeed133_DR5_G17T_o1 (dsDNA)
DNA 1: GCCGTCCAAGGTCAATTCTAGGTCAGTGAAAGCATTGCGATTGACAGCGTAGAATGAAGG
DNA 2: CCTTCATTCTACGCTGTCAATCGCAATGCTTTCACTGACCTAGAATTGACCTTGGACGGC
B11: NRC3_wobSeed133_DR5_C7G_o1 (dsDNA)
DNA 1: GCCGTCGAAGGTCAATGCTAGGTCAGTGAAAGCATTGCGATTGACAGCGTAGAATGAAGG
DNA 2: CCTTCATTCTACGCTGTCAATCGCAATGCTTTCACTGACCTAGCATTGACCTTCGACGGC
B12: NRC3_wobSeed133_DR5_G22C_o1 (dsDNA)
DNA 1: GCCGTCCAAGGTCAATGCTAGCTCAGTGAAAGCATTGCGATTGACAGCGTAGAATGAAGG
DNA 2: CCTTCATTCTACGCTGTCAATCGCAATGCTTTCACTGAGCTAGCATTGACCTTGGACGGC
B13: NRC3_wobSeed64_DR2_C13G_o1 (dsDNA)
DNA 1: GCTAGCCTAGGTGATTGGGCCAGTATAGTACGCATCGCGATTGACAGCGTAGAATGAAGG
DNA 2: CCTTCATTCTACGCTGTCAATCGCGATGCGTACTATACTGGCCCAATCACCTAGGCTAGC
B14: NRC3_wobSeed135_DR5_A14C_o1 (dsDNA)
DNA 1: GCCGAACTAGGTCCTTGACAGGACAGTGAATAGTAAGCGATTGACAGCGTAGAATGAAGG
DNA 2: CCTTCATTCTACGCTGTCAATCGCTTACTATTCACTGTCCTGTCAAGGACCTAGTTCGGC
B15: NRC3_wobSeed58_DR2_G18C_o1 (dsDNA)
DNA 1: GCATCGAAAGGTCGTGACGTGAGTATACAGAAAGGCGCGATTGACAGCGTAGAATGAAGG
DNA 2: CCTTCATTCTACGCTGTCAATCGCGCCTTTCTGTATACTCACGTCACGACCTTTCGATGC
B16: NRC3_wobSeed10_DR0_A9C_o1 (dsDNA)
DNA 1: GCATCGAACGGTCGAGGTGAGTATAGAGAAAGGGAAGCGATTGACAGCGTAGAATGAAGG
DNA 2: CCTTCATTCTACGCTGTCAATCGCTTCCCTTTCTCTATACTCACCTCGACCGTTCGATGC
B17: NRC3_wobSeed32_DR1_A9T_o1 (dsDNA)
DNA 1: GCTCTTGTTGATCAAAGGTTAAGAAAGCCGAAGCCTGCGATTGACAGCGTAGAATGAAGG
DNA 2: CCTTCATTCTACGCTGTCAATCGCAGGCTTCGGCTTTCTTAACCTTTGATCAACAAGAGC
B18: NRC3_wobSeed61_DR2_C21G_o1 (dsDNA)
DNA 1: GCCGTCCAAGGTCAGCAGGTGAGTGAAAGCGACGTGGCGATTGACAGCGTAGAATGAAGG
DNA 2: CCTTCATTCTACGCTGTCAATCGCCACGTCGCTTTCACTCACCTGCTGACCTTGGACGGC
B19: NRC3_wobSeed28_DR1_T23A_o1 (dsDNA)
DNA 1: GCCCTACTGGGCCAAAGGTCATAGATTCCAATGCTCGCGATTGACAGCGTAGAATGAAGG
DNA 2: CCTTCATTCTACGCTGTCAATCGCGAGCATTGGAATCTATGACCTTTGGCCCAGTAGGGC
B20: NRC3_wobSeed74_DR3_A27G_o1 (dsDNA)
DNA 1: GCTCTAGTTGGTCACGGAGGTCACACGCGACGGGTAGCGATTGACAGCGTAGAATGAAGG
DNA 2: CCTTCATTCTACGCTGTCAATCGCTACCCGTCGCGTGTGACCTCCGTGACCAACTAGAGC
B21: NRC3_wobSeed7_DR0_A13T_o1 (dsDNA)
DNA 1: GCTCATATAGGTTAAGGTGAAAGTCGAACGATATGAGCGATTGACAGCGTAGAATGAAGG
DNA 2: CCTTCATTCTACGCTGTCAATCGCTCATATCGTTCGACTTTCACCTTAACCTATATGAGC
B22: NRC3_wobSeed90_DR3_G9C_o1 (dsDNA)
DNA 1: GCCATACACGGTCAGCTAGGCCAGAGTAGGGACGGCGCGATTGACAGCGTAGAATGAAGG
DNA 2: CCTTCATTCTACGCTGTCAATCGCGCCGTCCCTACTCTGGCCTAGCTGACCGTGTATGGC
B23: NRC3_wobSeed22_DR0_T22G_o1 (dsDNA)
DNA 1: GCTTACCAAGGTGAAGGTCGTGGATCCCTCTGTAGAGCGATTGACAGCGTAGAATGAAGG
DNA 2: CCTTCATTCTACGCTGTCAATCGCTCTACAGAGGGATCCACGACCTTCACCTTGGTAAGC
B24: NRC3_wobSeed50_DR2_A22C_o1 (dsDNA)
DNA 1: GCCCTAGTTGGTCAGGAGGTCCCACACCGGATATGAGCGATTGACAGCGTAGAATGAAGG
DNA 2: CCTTCATTCTACGCTGTCAATCGCTCATATCCGGTGTGGGACCTCCTGACCAACTAGGGC
B25: NRC3_wobSeed4_DR0_T22A_o1 (dsDNA)
DNA 1: GCCCTACTGGGCCAAGGTCATAGATCAGTCAAAGCAGCGATTGACAGCGTAGAATGAAGG
DNA 2: CCTTCATTCTACGCTGTCAATCGCTGCTTTGACTGATCTATGACCTTGGCCCAGTAGGGC
B26: NRC3_wobSeed53_DR2_C15G_o1 (dsDNA)
DNA 1: GCCCTTACGGGTCAGGAGGTTATAGCACGACGAGCGGCGATTGACAGCGTAGAATGAAGG
DNA 2: CCTTCATTCTACGCTGTCAATCGCCGCTCGTCGTGCTATAACCTCCTGACCCGTAAGGGC
B27: NRC3_wobSeed119_DR4_A9G_o1 (dsDNA)
DNA 1: GCGGAACGGGGGCATTCGAGTTGATAGCATGGCGATGCGATTGACAGCGTAGAATGAAGG
DNA 2: CCTTCATTCTACGCTGTCAATCGCATCGCCATGCTATCAACTCGAATGCCCCCGTTCCGC
B28: NRC3_wobSeed79_DR3_C17A_o1 (dsDNA)
DNA 1: GCTCATATAGGTAATAAAGGTGAAAGTCGGCATCTAGCGATTGACAGCGTAGAATGAAGG
DNA 2: CCTTCATTCTACGCTGTCAATCGCTAGATGCCGACTTTCACCTTTATTACCTATATGAGC
B29: NRC3_wobSeed40_DR1_A21T_o1 (dsDNA)
DNA 1: GCTAGCCTAGGTCATGGGCCTGTATACCACGCGAACGCGATTGACAGCGTAGAATGAAGG
DNA 2: CCTTCATTCTACGCTGTCAATCGCGTTCGCGTGGTATACAGGCCCATGACCTAGGCTAGC
B30: NRC3_wobSeed13_DR0_G10C_o1 (dsDNA)
DNA 1: GCCGTCCAACGTCAAGGTCAGTGAAAGAGACTCGAAGCGATTGACAGCGTAGAATGAAGG
DNA 2: CCTTCATTCTACGCTGTCAATCGCTTCGAGTCTCTTTCACTGACCTTGACGTTGGACGGC
B31: NRC3_wobSeed55_DR2_A15T_o1 (dsDNA)
DNA 1: GCTCATATAGGTAATCAGGTGAAAGTCCGTAAGTTAGCGATTGACAGCGTAGAATGAAGG
DNA 2: CCTTCATTCTACGCTGTCAATCGCTAACTTACGGACTTTCACCTGATTACCTATATGAGC
B32: NRC3_wobSeed20_DR0_G4A_o1 (dsDNA)
DNA 1: GCAAAATGAGGTTAAGATCAGGGAAACAGAATACATGCGATTGACAGCGTAGAATGAAGG
DNA 2: CCTTCATTCTACGCTGTCAATCGCATGTATTCTGTTTCCCTGATCTTAACCTCATTTTGC

The target in this series is PPARg:RXRa (Homo sapiens, UniProt P37231;P19793 full;full). Briefly: no ligand; PBM; 180 nM : 90 nM RXRa; PBS pH 7.4, 2% milk, 0.02% Triton X-100, 1 mM DTT, BSA, 0.4 mg/ml salmon testes DNA. The note with it: tags: His kept;His cleaved; copies: 1;1; label: surface-attached array probe.
Sequence of PPARg:RXRa (P37231 29-505, chain 1 of 2): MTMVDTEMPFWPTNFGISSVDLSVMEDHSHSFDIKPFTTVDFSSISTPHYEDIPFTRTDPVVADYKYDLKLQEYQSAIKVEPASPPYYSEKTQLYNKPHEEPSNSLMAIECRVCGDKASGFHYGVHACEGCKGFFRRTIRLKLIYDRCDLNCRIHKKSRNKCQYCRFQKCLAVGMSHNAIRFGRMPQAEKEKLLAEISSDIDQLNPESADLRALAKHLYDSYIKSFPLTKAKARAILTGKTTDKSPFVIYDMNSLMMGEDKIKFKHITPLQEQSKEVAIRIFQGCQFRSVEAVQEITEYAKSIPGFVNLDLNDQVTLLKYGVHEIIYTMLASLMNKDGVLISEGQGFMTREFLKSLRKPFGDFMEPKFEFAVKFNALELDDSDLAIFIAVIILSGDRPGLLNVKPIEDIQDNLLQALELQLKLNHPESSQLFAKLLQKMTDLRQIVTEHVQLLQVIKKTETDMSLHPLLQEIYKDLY
Sequence of PPARg:RXRa (P19793 whole entry, chain 2 of 2): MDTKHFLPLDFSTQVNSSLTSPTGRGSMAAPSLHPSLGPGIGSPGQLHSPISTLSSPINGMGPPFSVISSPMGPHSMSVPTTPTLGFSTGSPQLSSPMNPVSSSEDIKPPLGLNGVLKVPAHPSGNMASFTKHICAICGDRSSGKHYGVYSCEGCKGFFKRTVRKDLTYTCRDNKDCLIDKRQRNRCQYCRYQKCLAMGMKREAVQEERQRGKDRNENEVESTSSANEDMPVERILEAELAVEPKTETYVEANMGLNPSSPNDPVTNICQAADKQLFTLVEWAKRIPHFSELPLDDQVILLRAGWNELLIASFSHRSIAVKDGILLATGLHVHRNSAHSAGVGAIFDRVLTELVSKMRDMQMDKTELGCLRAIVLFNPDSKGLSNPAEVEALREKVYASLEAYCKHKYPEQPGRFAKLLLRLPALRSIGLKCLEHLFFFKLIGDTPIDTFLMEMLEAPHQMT
With B1, the binding signal is 4.49 PBM z-score against 500 random probes.
The value for B2 was 4.08 PBM z-score against 500 random probes; that for B3 was 0.4 PBM z-score against 500 random probes; that for B4 was 3.06 PBM z-score against 500 random probes.
Consider B5, for which the binding signal was 3.7 PBM z-score against 500 random probes.
The result for B6 reads 3.51 PBM z-score against 500 random probes; that for B7, 3.39 PBM z-score against 500 random probes; that for B8, 0.49 PBM z-score against 500 random probes.
The value for B9 was 0.49 PBM z-score against 500 random probes; that for B10 was 4.21 PBM z-score against 500 random probes; that for B11 was 4.13 PBM z-score against 500 random probes.
As for B12, the binding signal is 3.28 PBM z-score against 500 random probes.
The value for B13 was 0.42 PBM z-score against 500 random probes.
For the molecule B14, the binding signal was 0.43 PBM z-score against 500 random probes.
For B15, the binding signal is 3.63 PBM z-score against 500 random probes.
The result for B16 reads 0.48 PBM z-score against 500 random probes; that for B17, 4.28 PBM z-score against 500 random probes.
The value for B18 was 3.18 PBM z-score against 500 random probes; that for B19 was 12.8 PBM z-score against 500 random probes.
The value for B20 was 3.93 PBM z-score against 500 random probes; that for B21 was 4.42 PBM z-score against 500 random probes; that for B22 was 0.49 PBM z-score against 500 random probes.
For B23, the binding signal was 3.58 PBM z-score against 500 random probes.
The result for B24 reads 0.46 PBM z-score against 500 random probes.
The result for B25 reads 4.36 PBM z-score against 500 random probes; that for B26, 3.77 PBM z-score against 500 random probes.
Regarding B27, the binding signal was 3 PBM z-score against 500 random probes.
The value for B28 was 3.46 PBM z-score against 500 random probes.
Consider B29, for which the binding signal was 3.23 PBM z-score against 500 random probes.
With B30, the binding signal was 0.38 PBM z-score against 500 random probes.
The value for B31 was 3.84 PBM z-score against 500 random probes.
The value for B32 was 3.12 PBM z-score against 500 random probes.

The values above are taken from paper PMC6555819, “Comprehensive study of nuclear receptor DNA binding provides a revised framework for understanding receptor specificity”.
